# From the Immune Epitope Database (IEDB)
# Key:
# HLA-A*68:02 [1] = test: IEDB peptide-MHC binding, purified MHC/competitive/fluorescence; filed as Kd, often an IC50 or EC50 that approximates it; ≥ and ≤ were set here for values at or beyond the usual limits of such assays; conditions: source organism: Bacillus anthracis str. A0488
# HLA-A*11:01 [2] = test: as above; conditions: source organism: Bacillus anthracis str. A0488
# HLA-B*15:09 = test: as above; conditions: source organism: Bacillus anthracis str. A0488
# HLA-A*26:02 = test: as above
# HLA-B*39:01 = test: as above; conditions: source organism: Bacillus anthracis str. A0488
# HLA-A*69:01 = test: IEDB peptide-MHC binding, purified MHC/direct/fluorescence; filed as Kd, often an IC50 or EC50 that approximates it; ≥ and ≤ were set here for values at or beyond the usual limits of such assays
# HLA-B*35:01 [3] = test: as above; conditions: source organism: Bacillus cereus 03BB108
# HLA-A*02:12 = test: as above; conditions: source organism: Bacillus cereus 03BB108
# HLA-A*03:01 [4] = test: as above
# HLA-A*02:11 = test: as above; conditions: source organism: Bacillus cereus 03BB108
# HLA-B*08:03 = test: as above
# HLA-B*08:02 = test: as above; conditions: source organism: Bacillus cereus 03BB108
# HLA-B*15:02 = test: as above; conditions: source organism: Bacillus cereus 03BB108
# HLA-A*02:01 [5] = test: as above
# HLA-A*01:01 [6] = test: as above
# HLA-B*15:01 [7] = test: as above; conditions: source organism: Bacillus anthracis
# HLA-B*58:01 = test: as above
# HLA-B*46:01 = test: as above
# HLA-B*15:17 [8] = test: as above; conditions: source organism: Bacillus anthracis
# HLA-A*02:19 = test: as above; conditions: source organism: Bacillus cereus 03BB108
# HLA-B*48:01 = test: as above
# HLA-B*07:02 = test: as above
# HLA-B*27:05 = test: as above
# HLA-B*57:01 = test: as above
# HLA-B*08:01 = test: as above
# HLA-A*26:03 [9] = test: as above; conditions: source organism: Bacillus cereus 03BB108
# HLA-B*15:42 = test: IEDB peptide-MHC binding, purified MHC/competitive/fluorescence; filed as Kd, often an IC50 or EC50 that approximates it; ≥ and ≤ were set here for values at or beyond the usual limits of such assays; conditions: source organism: Crocodilepox virus
# HLA-B*83:01 = test: as above; conditions: source organism: Crocodilepox virus
# HLA-B*45:06 = test: as above; conditions: source organism: Crocodilepox virus
# HLA-A*32:07 = test: as above; conditions: source organism: Crocodilepox virus
# HLA-A*29:02 = test: as above; conditions: source organism: Crocodilepox virus
# HLA-B*35:01 [10] = test: as above; conditions: source organism: Vaccinia virus WR
# HLA-B*15:01 [11] = test: as above; conditions: source organism: Vaccinia virus WR
# HLA-B*15:17 [12] = test: as above; conditions: source organism: Vaccinia virus WR
# HLA-A*26:03 [13] = test: as above; conditions: source organism: Vaccinia virus WR
# HLA-A*26:01 = test: as above; conditions: source organism: Vaccinia virus WR
# HLA-A*68:02 [14] = test: IEDB peptide-MHC binding, purified MHC/direct/fluorescence; filed as Kd, often an IC50 or EC50 that approximates it; ≥ and ≤ were set here for values at or beyond the usual limits of such assays; conditions: source organism: Camelpox virus M-96
# HLA-A*11:01 [15] = test: as above; conditions: source organism: Camelpox virus M-96
# HLA-B*40:01 = test: as above; conditions: source organism: Camelpox virus M-96
# HLA-A*80:01 = test: as above; conditions: source organism: Camelpox virus M-96
# HLA-A*31:01 = test: as above; conditions: source organism: Camelpox virus M-96
# HLA-A*11:01 [16] = test: IEDB peptide-MHC binding, purified MHC/competitive/fluorescence; ≥ and ≤ were set here for values at or beyond the usual limits of such assays; conditions: source organism: Vaccinia virus WR
# HLA-A*24:02 = test: as above; conditions: source organism: Vaccinia virus WR
# HLA-A*03:01 [17] = test: as above; conditions: source organism: Vaccinia virus WR
# HLA-A*02:01 [18] = test: as above; conditions: source organism: Vaccinia virus WR
# HLA-A*01:01 [19] = test: as above; conditions: source organism: Vaccinia virus WR
# HLA-B*15:01 [20] = test: as above; conditions: source organism: Vaccinia virus WR
# [21] = source organism: Bacillus anthracis
# [22] = source organism: Bacillus cereus 03BB108
# [23] = source organism: Camelpox virus M-96
sequence,measurement,setting,value
KVQEWYLSY,Kd,HLA-A*68:02 [1],3.4 µM
same,Kd,HLA-A*11:01 [2],0.0422 µM
same,Kd,HLA-B*15:09,≥ 20 µM
same,Kd,HLA-A*26:02; source organism: Bacillus anthracis str. A0488,1.21 µM
same,Kd,HLA-B*39:01,0.0869 µM
same,Kd,HLA-A*69:01; [21],15 µM
same,Kd,HLA-B*35:01 [3],2.06 µM
same,Kd,HLA-A*02:12,1.63 µM
same,Kd,HLA-A*03:01 [4]; [21],0.132 µM
same,Kd,HLA-A*02:11,0.308 µM
same,Kd,HLA-B*08:03; [22],0.324 µM
same,Kd,HLA-B*08:02,≥ 20 µM
same,Kd,HLA-B*15:02,1.48 µM
same,Kd,HLA-A*02:01 [5]; [21],14.3 µM
same,Kd,HLA-A*01:01 [6]; [21],≥ 5 µM
same,Kd,HLA-B*15:01 [7],0.443 µM
same,Kd,HLA-B*58:01; [21],3.62 µM
same,Kd,HLA-B*46:01; [21],≥ 20 µM
same,Kd,HLA-B*15:17 [8],0.121 µM
same,Kd,HLA-A*02:19,≥ 20 µM
same,Kd,HLA-B*48:01; [21],≥ 20 µM
same,Kd,HLA-B*07:02; [21],5.54 µM
same,Kd,HLA-B*27:05; [21],0.0517 µM
same,Kd,HLA-B*57:01; [21],≥ 20 µM
same,Kd,HLA-B*08:01; [22],≥ 20 µM
same,Kd,HLA-A*26:03 [9],≥ 20 µM
RVRSMANVY,Kd,HLA-B*15:42,≥ 5 µM
same,Kd,HLA-B*83:01,≥ 5 µM
same,Kd,HLA-B*45:06,≥ 5 µM
same,Kd,HLA-A*32:07,0.0157 µM
same,Kd,HLA-A*29:02,0.0151 µM
SLFTEQAFY,Kd,HLA-B*35:01 [10],1.15 µM
same,Kd,HLA-A*26:02; source organism: Vaccinia virus WR,≥ 20 µM
same,Kd,HLA-B*15:01 [11],0.959 µM
same,Kd,HLA-B*15:17 [12],≥ 20 µM
same,Kd,HLA-A*26:03 [13],≥ 20 µM
same,Kd,HLA-A*26:01,≥ 5 µM
same,Kd,HLA-A*69:01; [23],≥ 20 µM
same,Kd,HLA-A*68:02 [14],≥ 20 µM
same,Kd,HLA-A*11:01 [15],1.11 µM
same,Kd,HLA-B*40:01,≥ 20 µM
same,Kd,HLA-A*03:01 [4]; [23],4.41 µM
same,Kd,HLA-B*08:03; source organism: Variola virus,≥ 20 µM
same,Kd,HLA-A*80:01,0.0086 µM
same,Kd,HLA-A*02:01 [5]; [23],≥ 20 µM
same,Kd,HLA-A*01:01 [6]; [23],≥ 20 µM
same,Kd,HLA-A*31:01,≥ 20 µM
same,Kd,HLA-B*58:01; source organism: Variola virus,≥ 20 µM
same,Kd,HLA-B*46:01; [23],≥ 20 µM
same,Kd,HLA-B*48:01; [23],≥ 20 µM
same,Kd,HLA-B*07:02; [23],≥ 20 µM
same,Kd,HLA-B*27:05; [23],≥ 20 µM
same,Kd,HLA-B*57:01; [23],≥ 20 µM
same,Kd,HLA-B*08:01; source organism: Variola virus,≥ 20 µM
same,IC50,HLA-A*11:01 [16],7.85 µM
same,IC50,HLA-A*24:02,31.2 µM
same,IC50,HLA-A*03:01 [17],7.04 µM
same,IC50,HLA-A*02:01 [18],15 µM
same,IC50,HLA-A*01:01 [19],32 µM
same,IC50,HLA-B*15:01 [20],3.93 µM
